Read-outs that look alike come from different tables or passages of the source.
Tests used:
[1] = tested on: N-terminal amino acids of peptides; assay: Single-molecule terminal amino acid recognition by labeled recognition molecule (dwell time analysis); type: binding
Protocol: An adaptor protein involved in proteolytic pathways was identified as a potential candidate for use as a labeled recognition molecule for detecting N-terminal aromatic residues. The adaptor protein, ClpS2 from an α-proteobacterium (A. tumefaciens), was expressed and labeled at an exposed cysteine residue. […] The exposed cysteine residue was labeled with a rhodamine dye (ATTO 532).
Peptides having different N-terminal aromatic residues were prepared to test whether the labeled ClpS2 was capable of N-terminal amino acid discrimination at the single molecule level.
FIG. 19C is a plot showing discriminant pulse durations (time duration of signal peaks) among the three N-terminal residues when reversibly bound by labeled ClpS2. FIG. 19D is a plot showing discriminant interpulse durations (time duration between signal pulses) among the three N-terminal residues. […] Mean pulse duration for the different N-terminal residues is visualized by histograms (A)-(B) and layered histogram (C).

[2] = tested on: LF, LA, IR, IA, VR, and VA peptides; assay: Binder-on-chip single-molecule assay (PS372); type: binding
Protocol: Binder-on-chip experiments were performed for PS372 with LF, LA, IR, IA, VR, and VA peptides to evaluate recognition by signal pulse detection in single-molecule assays. […] For comparison, the mean pulse width observed with the L-binder teClpS was 768 ms (˜37% shorter than PS372).

[3] = tested on: immobilized peptides containing an N-terminal amino acid of interest (XAKLDEESILKQK; XXKLDEESILKQK); assay: Biolayer interferometry screening of ClpS homologs; type: binding; conditions: for binding to isoleucine peptides, effect of penultimate amino acid: IR, IQ, IA peptides; for binding to valine peptides, effect of penultimate amino acid: VA, VR peptides
Protocol: The amino acid binding profile of each new homolog was evaluated by biolayer interferometry. ClpS proteins with known binding profiles (atClpS2-V1, atClpS1, and teClpS) were included as controls. In these assays, peptides containing an N-terminal amino acid of interest were immobilized on a biolayer interferometry sensor surface, allowed to bind to ClpS protein, and incubated in buffer to allow the ClpS molecules to dissociate. The binding response (nm) and dissociation off-rate (kdis, s^−1) were measured using a kinetic model. Measurements with each ClpS protein were carried out at 30° C. for the amino acids I, V, M, F. Y, and W, along with D, E, A, and R as negative controls. All peptides contained a penultimate alanine (A) and consisted of the sequence XAKLDEESILKQK (SEQ ID NO: 238).
Results from the biolayer interferometry screening of 61 ClpS homologs (58 new homologs, 3 reference homologs) are shown in FIG. 29B. Response (y-axis) is plotted against the inverse of dissociation rate for eight different dipeptides (data not shown for negative controls DA, AA, and RA). In these plots, higher values on the y-axis correspond to stronger association response and higher values on the x-axis indicate slower dissociation rates.
The effect of penultimate amino acids on isoleucine and valine binding by PS372 were evaluated by measuring binding to peptides with N-terminal IR, IQ, and VR by biolayer interferometry (peptide sequence: XXKLDEESILKQK (SEQ ID NO: 291)). Measurements were also obtained with teClpS for comparison.

[4] = tested on: amino acid at a terminal position of a polypeptide; assay: Amino acid binding preference of recognition proteins (Tables 1 and 2); conditions: Table 1, ClpS proteins; amino acid identity at a terminal position of a polypeptide; inferred from literature and/or demonstrated by the inventors
Source text: It should be appreciated that these sequences and other examples described herein are meant to be non-limiting, and recognition molecules in accordance with the application can include any homologs, variants thereof, or fragments thereof minimally containing domains or subdomains responsible for peptide recognition.

[5] = tested on: FITC-labeled peptide (XAKLDEESILKQK-FITC (SEQ ID NO: 238)); assay: Fluorescence polarization of ClpS:streptavidin complexes; type: binding; conditions: 30 minute incubation at 23° C.
Protocol: ClpS homologs were evaluated by fluorescence polarization to measure the interaction of a FITC-labeled peptide (XAKLDEESILKQK-FITC (SEQ ID NO: 238)) with ClpS:streptavidin complexes. Measurements of polarization response (millipolarization, mP) and total intensity for I, V, L, F, Y, and W were performed in a high-throughput 384-well plate format, using 480 nm excitation and 530 nm emission wavelength with readings collected after 30 minute incubation at 23° C. The results with in-solution binding validated that PS372 binds with leucine, isoleucine, and valine with strength of response in the order LA>IA>VA (FIG. 29E). Binding responses of atClpS2-V1 were FA>YA>WA, and those of teClpS were LA>FA>YA>WA.

[6] = target: T1, fluorescently-labeled peptide containing N-terminal phospho-tyrosine (Homo sapiens, UniProt P06241, C239S/C240S/C246S/K204L/S186A/T181V); assay: Single-molecule recognition of modified amino acids by immobilized Fyn SH2 variant; type: binding
T1 construct: Src Homology 2 (SH2) domain from Fyn
Protocol: Experiments were performed to evaluate recognition of amino acids containing specific post-translation modifications. […] The variant protein was immobilized to the bottom of sample wells, and single-molecule signal traces were collected upon addition of a fluorescently-labeled peptide containing N-terminal phospho-tyrosine. […] Pulse duration data collected during these experiments is shown in FIG. 22B (top, middle, and bottom plots corresponding to the top, middle, and bottom traces of FIG. 22A, respectively). Pulse duration and interpulse duration statistics are shown in FIG. 22C (top and bottom panels, respectively). Control experiments were performed to confirm that the Fyn protein was specific for the phosphorylated tyrosine. The experiments were repeated for each of three different peptides: a first peptide containing N-terminal unmodified tyrosine (Y; FIG. 22D), a second peptide containing N-terminal and penultimate unmodified tyrosines (YY; FIG. 22E), and a third peptide containing N-terminal phospho-serine (FIG. 22F).

[7] = tested on: amino acid at a terminal position of a polypeptide; conditions: Table 2; amino acid identity at a terminal position (phosphotyrosine also internal); inferred from literature and/or demonstrated by the inventors; cited from earlier work
[8] = tested on: peptides with different N-terminal amino acids, penultimate alanine; assay: Biolayer interferometry of multivalent amino acid binders; type: binding
Protocol: The amino acid binding profile of each Bis-atClpS2-V1 binder (PS609, PS610, and PS611) was evaluated by biolayer interferometry as described above. The monovalent atClpS2-V1 was run as a control. Measurements with each binder were carried out for the amino acids F, Y, and W, along with I, L, M, and V as negative controls. All peptides contained a penultimate alanine (A). Response curves for the tandem binders PS609, PS610, and PS611 are shown in FIGS. 35B, 35C, and 35D, respectively.
The multivalent binder PS612 is a polypeptide that contains tandem copies of two different ClpS protein monomers (atClpS2-V1 and PS372). The amino acid binding profile of PS612 was evaluated by biolayer interferometry as described above. The monovalent binders atClpS2-V1 and PS372 were separately run as controls.
The multivalent binder PS614 is a polypeptide that contains two copies of the ClpS binder PS372 oriented in tandem. The amino acid binding profile of PS614 was evaluated by biolayer interferometry as described above.
The multivalent binders PS637, PS638, and PS639 are polypeptides that each contain two copies of the ClpS binder PS557 oriented in tandem and separated by Linker 1, Linker 2, and Linker 3, respectively. The amino acid binding profiles of each binder was evaluated by biolayer interferometry as described above.

[9] = tested on: N-terminal isoleucine peptide and N-terminal leucine peptide; assay: Peptide-on-chip recognition assay with labeled PS372; type: binding
[10] = tested on: immobilized peptide containing N-terminal phenylalanine (FYPLPWPDDDY (SEQ ID NO: 235)); assay: Simultaneous single-molecule recognition with differentially labeled recognition molecules; type: binding; conditions: 500 nM each binder
Protocol: Single peptide molecules containing N-terminal phenylalanine ([…] (SEQ ID NO: 235)) were immobilized in sample wells of a chip. Buffer containing 500 nM each of atClpS1 (Agrobacterium tumifaciens ClpS1; sequence provided in Table 1) and atClpS2-V1 (Agrobacterium tumifaciens ClpS2 variant 1; sequence provided in Table 1) was added, where atClpS1 and atClpS2-V1 were labeled with Cy3 and Cy3B, respectively. Since the intensity of Cy3B is higher than Cy3, atClpS2-V1 binding events were readily distinguishable from atClpS1 binding events.
The pulse duration distributions were distinct for each binder (FIG. 24B) and corresponded to their kinetic profiles as observed in single-binder experiments. Mean pulse duration was 1.3 seconds for atClpS1 and 1.0 seconds for atClpS2-V1 (FIG. 24C). Pulse rate was also distinct: 8.1 pulses/min for atClpS1 and 14.1 pulses/min for atClp2-V1 (FIG. 24C).

B1: teClpS: ClpS protein, SEQ ID NO: 107 (protein, listed as Thermosynechococcus elongatus)
chain: MPQERQQVTRKHYPNYKVIVLNDDFNTFQHVAACLMKYIPNMTSDRAWELTNQVHYEGQAIVWVGPQEQAELYHEQLLRAGLTMAPLEPE
mean pulse duration ([1]; terminal leucine residue): 0.71 s | mean pulse width ([2]; L-binder comparison, peptide not stated): 768 ms | binding to isoleucine peptides, effect of penultimate amino acid [3]: minor response with very fast dissociation for IR peptide only | binding to valine peptides, effect of penultimate amino acid [3]: no response with V peptides | Binding Pref. [4]: F, W, Y, L | order of strength of polarization response [5]: LA>FA>YA>WA

B2: H. sapiens Fyn SH2 domain triple mutant superbinder: SEQ ID NO: 117 (protein, listed as Homo sapiens)
chain: MGAMDSIQAEEWYFGKLGRKDAERQLLSFGNPRGTFLIRESETVKGAYALSIRDWDDMKGDHVKHYLIRKLDNGGYYITTRAQFETLQQLVQHYSERAAGLSSRLVVPSHK
peptide binding (single-molecule signal traces) ([6]; negative controls: N-terminal unmodified tyrosine (Y), YY, N-terminal phospho-serine): binding was not detected | peptide binding (single-molecule signal traces) ([6]; peptide containing N-terminal phospho-tyrosine): Peptide binding by the immobilized protein was detected | Binding Pref. [7]: phospho-Y

B3: PS372: ClpS homolog binding leucine, isoleucine and valine, SEQ ID NO: 5 (protein)
chain: MAFPARGKTAPKNEVRRQPPYNVILLNDDDHTYRYVIEMLQKIFGFPPEKGFQIAEEVDRTGRVILLTTSKEHAELKQDQVHSYGPDPYLGRPCSGSMTCVIEPAV
mean pulse width ([2]; IA peptide): 70 ms | mean pulse width ([2]; IR peptide): 83 ms | mean pulse width ([2]; LA peptide): 876 ms | mean pulse width ([2]; LF peptide): 1207 ms | amino acids bound (biolayer interferometry) ([3]; 30° C., penultimate alanine): binder of leucine, isoleucine, and valine | binding to the F, Y, or W peptides ([3]; 30° C., penultimate alanine): did not show binding | binding to isoleucine peptides, effect of penultimate amino acid [3]: binds IQ and IA with higher affinity relative to IR | binding to valine peptides, effect of penultimate amino acid [3]: binds well with VA and has negligible response with VR | Binding Pref. [4]: L, I, V | order of strength of polarization response [5]: LA>IA>VA | N-terminal amino acids bound (biolayer interferometry) [8]: binds N-terminal I, L, and V

B4: dye-labeled PS372: PEGylated, biotinylated PS372 conjugated 1:1 with streptavidin and a biotinylated Cy3B-labeled oligonucleotide (conjugate)
chain: MAFPARGKTAPKNEVRRQPPYNVILLNDDDHTYRYVIEMLQKIFGFPPEKGFQIAEEVDRTGRVILLTTSKEHAELKQDQVHSYGPDPYLGRPCSGSMTCVIEPAV
mean pulse width ([9]; N-terminal isoleucine peptide (IAALAAVAADDDW (SEQ ID NO: 239))): 78 ms | mean pulse width ([9]; N-terminal leucine peptide (LAAIAAFAADDDW (SEQ ID NO: 292))): 957 ms

B5: atClpS1: Agrobacterium tumifaciens ClpS1, SEQ ID NO: 93 (protein, listed as Agrobacterium tumifaciens)
chain: MIAEPICMQGEGDGEDGGTNRGTSVITRVKPKTKRPNLYRVLLLNDDYTPMEFVIHILERFFQKDREAATRIMLHVHQHGVGECGVFTYEVAETKVSQVMDFARQHQHPLQCVMEKK
recognition of terminal amino acids (dwell time analysis) [1]: differentiable recognition of phenylalanine, leucine, tryptophan, and tyrosine | Binding Pref. [4]: F, W, Y, L | Pulse rate [10]: 8.1 pulses/min | mean pulse duration [10]: 1.3 s

From patent publication US12065466B2, “Methods and compositions for protein sequencing” (Quantum-Si Incorporated, priority 2020, dated 2024)
